The nature of the data set: yeast display, Sf9 membrane polyspecificity reagent, FACS + sequencing; frameworks hold sequencing errors. In a few lines: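 Genes from sorted yeast were amplified by colony PCR, read by MiSeq 2 × 250 sequencing and filtered on CDR length. These cells carried a synthetic nanobody library in Saccharomyces cerevisiae BJ5465 and were sorted by FACS into low and high (top ~1%) gates on anti-HA and streptavidin fluorescence. Polyreactivity is labelled according to the gate of origin.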
Take “QVQLVESGGGLVQAGGSLRLSCAASGRTFPFYAMGWYRQAPVKEREFVAAITASGDSTYYADSVKGRFTISRDNAKYTVYLQMNSLKPEDTAVYYCAADLPVWYVTRYDYWGQGTQVTVSS”: the “polyreactivity (PSR sort gate)” value is “low polyreactivity”.

In the case of “QVQLVESGGGLVQAGGSLRLSCAASGRTFPGNAMGGDKQAPGKERELVASINGRTTRTYYADSVKGRFTISRDNAKNTVYLQMTSLKPEDTAVYYCAADPPGYVYGKRYYWGQGTQVTVSS”, the “polyreactivity (PSR sort gate)” value was “high polyreactivity”.

As to “QVQLVESGGGLVQAGGSLRLSCAASGRTFPGNAMGWYRQAPGKERELVAAINSGGSTYYADSVKGRFTISRDNAKNTVYLQMNSLKPEDTAVYYSAAYFGHYWRYYYWGQGTQVNVSS”, the “polyreactivity (PSR sort gate)” value is given as “high polyreactivity”.

Turning to “QVQLVESGGGLVQAGGSLRLSCAASGRTFPGYAMGWYRQAPGKARELVAGISYRGGSTYYADSVKGRFTISRDNAKNTVYLQLNSLKPEDTAVYYCARDYSRHKGDYWGQGTQVTVSS”, the “polyreactivity (PSR sort gate)” value is “low polyreactivity”.

Turning to “QVQLVESGGGLVQAGGSLRLSCAASGRTFPGYAMGWYRQAPGKERELVAAITSSGDDTYYADSVKGRFTISRDNAKNTVYLQMNSLKPEDTAVYYCRLFRRSADSSYDYEYWGQGTQVTVSS”, the “polyreactivity (PSR sort gate)” value is listed as “low polyreactivity”.

As to “QVQLVESGGGLVQAGGSLRLSCAASGRTFPGYAMGWYRQAPGKERELVATITLSDGSTYYADSVKGRFTISRDNAKTTVYLQMNSLKPEDTAVYYCNARRSYFLRYGVNYWGQGTQVTVSS”, the “polyreactivity (PSR sort gate)” value is listed as “low polyreactivity”.

Turning to “QVQLVESGGGLVQAGGSLRLSCAASGRTFPGYAMGWYRQAPGKERELVAVISWSGGRTNYADSVKGRFTISRDNAKNTVYLQMNSLKPEDTAVYYCAARYHGHSNDYWGQGTQVTVSS”, the “polyreactivity (PSR sort gate)” value is given as “low polyreactivity”.

On to “QVQLVESGGGLVQAGGSLRLSCAASGRTFPGYGMGWYRQAPGKERELVAVITSNGGITYYADSVKWRFTISRDIAKYTVYLVMNRLIAEDTAVYFCAAYEIYYEFVCWGQGSQVTVSS”, for which the “polyreactivity (PSR sort gate)” value is “low polyreactivity”.

As for “QVQLVESGGGLVQAGGSLRLSCAASGRTFPPYGMGWYRQAPGKERELVAAISKSSGSTNYADSVKGRFTISRDNAKNTVYLQMNSLKPEDTAVYYCNVDLYRWSKLAGAYRMDYWGQGTQVTVSS”, the “polyreactivity (PSR sort gate)” value is reported as “low polyreactivity”.

As for “QVQLVESGGGLVQAGGSLRLSCAASGRTFPRYAMGWYRQAPGKERELVAAISRGGGTTYADSVKGRFTISRDNAKNTVYLQMNSLKPEDTAVYYCATRSPYSYPNLYYWGQGTQVTVSS”, the “polyreactivity (PSR sort gate)” value is “high polyreactivity”.

For “QVQLVESGGGLVQAGGSLRLSCAASGRTFPSNAMGWYRQAPGKEREFVASITYSGGRTYYADSVKGRFTISRDNAKNTVYLQVNSLKPEDTAVYYCAAYPQFWYLDYNYWGQGTQVTVSS”, the “polyreactivity (PSR sort gate)” value is on record as “high polyreactivity”.

“QVQLVESGGGLVQAGGSLRLSCAASGRTFPSYAMGWYRQAPGKERELVAAITTSGGSTYYADSVKGRFTISRDNAKNTVYLQMNSLKPEDTAVYYCAAAKPYSGSQYYYWGQGTQVTVSS”: the “polyreactivity (PSR sort gate)” value was “high polyreactivity”.

On to “QVQLVESGGGLVQAGGSLRLSCAASGRTFPSYVMGWYRQAPGKERELVAAITATGASTYYADSVKGRFTISRDNAKNTVYLQMNSQKPEDTAVYYCAASRYGLYENGYEYYWGQVTQVTVSS”, for which the “polyreactivity (PSR sort gate)” value is reported as “low polyreactivity”.

Regarding “QVQLVESGGGLVQAGGSLRLSCAASGRTFPVNAMGWYRQAPGKEREFVAVISSTGTTYYADSVKGRFTISLDNAKITVYLQMNSLKPEDTAVYYCARRSNRRAYVNRVGVLRTVDYWGQGTQVTVSS”, the “polyreactivity (PSR sort gate)” value was “low polyreactivity”.

“QVQLVESGGGLVQAGGSLRLSCAASGRTFPWYGKGWYRPAPGKERELVAAISRTGGNTYYADSVKGRFTISRDNAKNTVYLQMNSLKPEDTAVYYCNAGYYSNRYYFYDYGYWGQGTQVTVSS”: the “polyreactivity (PSR sort gate)” value is reported as “high polyreactivity”.

“QVQLVESGGGLVQAGGSLRLSCAASGRTFPYNAMGRYRQAPGKERELVAAISGRGGSTYYADSVKGRFTISRDNAKNTVYLQMNSLKPEDTAVYYCAVYTIYGFYYWGQGTQVTVSS”: the “polyreactivity (PSR sort gate)” value is reported as “high polyreactivity”.

For the origin of these results see the nanobody polyreactivity screen of Harvey et al. (2022).
